Assay results: US10668049B2, “Methods of treating cognitive decline with transforming growth factor beta inhibitors” (The Regents of the University of California, priority 2008, dated 2020)

Columns and labels:
[1] = target: T1, astrocyte specific glutamate transporter, SLC1A2 (Rattus norvegicus, UniProt P31596); assay: Whole cell patch recording of NMDA-mediated EPSCs in cortical pyramidal neurons; format: cell-based
T1 construct: In vitro intracellular recordings were obtained from pyramidal neurons (layer 2-3) 23-28 h following the in vivo treatment; from tissue; host or cells: acute rat neocortical slices (astrocytic transporter; recordings from layer 2-3 pyramidal neurons)
Protocol: In vitro intracellular recordings were obtained from pyramidal neurons (layer 2-3) 23-28 h following the in vivo treatment with albumin or from control rats. Currents were recorded using the whole cell patch configuration, as described previously (Pavlovsky et al., 2003). In brief, glass pipettes were pulled from capillaries using a vertical puller (Narashige, Greenvale, N.Y.) and filled with a solution comprising (in mM): 150 CsCl, 1 MgCl2, 10 HEPES, 4 Na2ATP, 0.1 CaCl2, and 1.1 mM EGTA, pH adjusted to 7.2 with a final osmolarity of 290-310 mOsm. Cells were visualized using infrared differential interference phase contrast video-microscopy. Recordings were performed using AxoPatch 700B (Axon Instruments, Foster City, Calif.), digitized at 10 kHz and recorded using pClamp 9.2 (Axon Instruments, Foster City, Calif.). Patch pipette's resistance was 4-5 MΩ. Series resistance was not electronically compensated; however, cells in which series resistance varied by more than 25% were excluded from the analysis. Stimulation protocols were started at least 5 min following impalement to allow intracellular dialysis with the pipette solution. Excitatory post-synaptic currents (EPSCs) were evoked—using a bipolar stimulating electrode positioned <200 μm from the recorded cell—at 75% of the intensity producing maximal EPSCs. N-methyl-D-aspartic acid (NMDA) currents were recorded in the presence of blockers of α-amino-3-hydroxy-5-methyl-4-isoxazole-propionic acid (AMPA)/kainate (i.e., 30 μM CNQX) and of gamma-aminobutyric acid A (GABAA) receptors (i.e., 10 μM bicuculine methiodide). Cells were voltage clamped to +40 mV to alleviate NMDA receptor blockade and inactivate fast Na^+ currents. In some experiments, dihydrokainic acid (DHK, Tocris, Bristol, UK), 100 μM, was added to the extracellular solution to selectively block the astrocyte specific glutamate transporter, SLC1A2 (see Arriza et al., 1994).
To confirm that the transcriptional changes induced by albumin were associated with altered cellular functions, the clearance of extracellular glutamate and potassium in cortical slices 24 hours following albumin treatment in vivo was investigated. To measure synaptic glutamate levels during neuronal activation, the slowly inactivating (Lester et al., 1990) NMDA currents in cortical neurons were recorded by using the whole-cell patch configuration (in the presence of non-NMDA glutamate and GABA receptor blockers, see Methods). Cells were clamped at +40 mV to prevent a potential confounding effect of post-synaptic depolarization due to the accumulation of synaptic [K^+]o. […] Synaptic glutamate elicited by 50 extracellular stimulations at 2, 5, 10, 20, 50 and 100 Hz before and after adding the astrocytic SLC1A2 specific inhibitor, DHK was measured. In neurons from control animals, DHK had no effect on single EPSCs or EPSCs elicited at low stimulation frequencies (<20 Hz). […] The same experiments were then repeated 24 h following cortical application of albumin (i.e. during epileptogenesis). In contrast to the control experiments, DHK had no effect on EPSC amplitude in treated slices (FIG. 13b-c, right), supporting reduced expression of the astrocytic transporter SLC1A2.

TGF-βRII = target: T2, TGF-βRII (Rattus norvegicus, UniProt P38438); assay: Albumin and TGF-βRII co-immunoprecipitation in cortical lysates; format: binding; conditions: cortical lysate pre-incubated with albumin
T2 construct: brains were isolated from adult Wistar rats, dissected in cold saline solution and lysed in RIPA buffer; from tissue; host or cells: adult Wistar rat brain cortex lysate (RIPA buffer)
T2 sequence (P38438 24-567): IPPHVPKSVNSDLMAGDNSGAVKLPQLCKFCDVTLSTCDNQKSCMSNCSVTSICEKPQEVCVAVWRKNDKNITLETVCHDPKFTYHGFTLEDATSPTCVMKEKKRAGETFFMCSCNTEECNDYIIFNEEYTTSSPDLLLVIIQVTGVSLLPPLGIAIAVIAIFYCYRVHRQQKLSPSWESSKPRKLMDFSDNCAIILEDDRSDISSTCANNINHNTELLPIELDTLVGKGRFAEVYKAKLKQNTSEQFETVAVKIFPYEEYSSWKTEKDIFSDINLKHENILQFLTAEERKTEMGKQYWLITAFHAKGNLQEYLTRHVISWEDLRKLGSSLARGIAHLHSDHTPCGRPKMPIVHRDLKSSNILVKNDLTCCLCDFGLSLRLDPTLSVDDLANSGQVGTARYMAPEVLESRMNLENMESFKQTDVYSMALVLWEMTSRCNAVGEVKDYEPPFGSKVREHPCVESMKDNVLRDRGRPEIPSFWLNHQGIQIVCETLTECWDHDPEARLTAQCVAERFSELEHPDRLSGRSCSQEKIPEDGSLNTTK
Protocol: To prepare cortical lysates, brains were isolated from adult Wistar rats, dissected in cold saline solution and lysed in RIPA buffer. BSA (3 μg) was added to lysates to approximately match the amount of precipitating anti-albumin antibodies. Immunoprecipitation was performed using the Catch and Release® v2.0 Reversible Immunoprecipitation System (Upstate, Charlottesville, Va.) with the following modifications to the standard protocol: the starting amount of protein was increased to 1,500 μg and the incubation time with precipitating antibodies was increased to 90 minutes. […]
The immunoprecipitated samples were separated with SDS-PAGE and transferred onto a nitrocellulose membrane. […] TGF-βRII was detected with a rabbit anti-TGF-βRII antibody (Upstate) and an AP-conjugated donkey anti-rabbit IgG secondary antibody (Jackson ImmunoResearch Laboratories, West Grove, Pa.). […]
To determine whether albumin binds to TGF-β receptors, co-immunoprecipitation using antibodies against albumin or TGF-βRII was performed on cortical lysate samples treated with albumin. An expected hand corresponding to TGF-βRII was detected in samples immunoprecipitated with the TGF-βRII antibody. More importantly, this band was also detected in samples pre-incubated with albumin when immunoprecipitated with the albumin antibody and probed for TGF-βRII (FIG. 2a). […]

[2] = 24 h following albumin treatment in vivo, clamped at +40 mV

T1 sequence (P31596 whole entry): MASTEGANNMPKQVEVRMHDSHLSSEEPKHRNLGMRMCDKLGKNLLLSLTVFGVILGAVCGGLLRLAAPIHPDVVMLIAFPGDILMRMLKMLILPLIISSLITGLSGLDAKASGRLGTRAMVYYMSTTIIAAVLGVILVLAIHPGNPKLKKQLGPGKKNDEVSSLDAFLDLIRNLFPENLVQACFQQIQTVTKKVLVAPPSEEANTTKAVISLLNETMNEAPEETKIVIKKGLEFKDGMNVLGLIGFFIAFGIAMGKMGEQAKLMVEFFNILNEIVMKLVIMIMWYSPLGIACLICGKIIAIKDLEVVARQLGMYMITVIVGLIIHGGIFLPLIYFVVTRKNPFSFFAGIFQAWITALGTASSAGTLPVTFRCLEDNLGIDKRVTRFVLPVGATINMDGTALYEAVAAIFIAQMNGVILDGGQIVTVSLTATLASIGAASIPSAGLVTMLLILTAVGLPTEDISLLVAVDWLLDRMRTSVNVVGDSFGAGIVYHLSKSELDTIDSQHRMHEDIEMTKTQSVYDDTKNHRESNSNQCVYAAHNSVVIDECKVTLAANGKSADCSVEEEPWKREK

Mean single EPSC amplitude [1, 2]: 505±100 pA | Mean single EPSC rise-time [1, 2]: 14.5 ± 0.5 ms | EPSC amplitude on repetitive stimulation, compared to controls ([1]; 24 h following cortical application of albumin): stronger depression | interaction with TGF-βRII (co-immunoprecipitation) (TGF-βRII): direct interaction
Substance: albumin: bovine serum albumin, used to induce epileptogenesis
